Data as given in paper PMC6959358.

Experiments:
Assay in all cases: co-immunoprecipitation (DYK-antibody beads) with immunoblot quantification
PKA = conditions: TnT-DYK expressed in HEK cells, immobilized on DYK-antibody beads, incubated with healthy control iPSC-CM lysate; n = 4; DYK negative control subtracted …; parent: est. 1.0; read off a plot
troponin I = troponin I (UniProt P19429); conditions: TnT-DYK expressed in HEK cells, immobilized on DYK-antibody beads, incubated with healthy control iPSC-CM lysate; n = 5; DYK negative control subtracted …; parent: est. 1.0; read off a plot
Sequence of UniProt P19429 (P19429 whole entry): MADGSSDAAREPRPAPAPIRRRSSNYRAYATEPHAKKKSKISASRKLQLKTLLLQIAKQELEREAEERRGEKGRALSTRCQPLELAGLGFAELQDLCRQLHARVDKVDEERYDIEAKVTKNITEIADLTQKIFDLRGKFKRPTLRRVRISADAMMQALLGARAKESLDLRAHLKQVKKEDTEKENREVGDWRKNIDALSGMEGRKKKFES

troponin C = troponin C (UniProt P63316); conditions: TnT-DYK expressed in HEK cells, immobilized on DYK-antibody beads, incubated with healthy control iPSC-CM lysate; n = 6; DYK negative control subtracted …; parent: est. 1.0; read off a plot
tropomyosin = tropomyosin (UniProt P09493); conditions: TnT-DYK expressed in HEK cells, immobilized on DYK-antibody beads, incubated with healthy control iPSC-CM lysate; n = 5; DYK negative control subtracted …; parent: est. 1.0; read off a plot
Sequence of UniProt P09493 (P09493 whole entry): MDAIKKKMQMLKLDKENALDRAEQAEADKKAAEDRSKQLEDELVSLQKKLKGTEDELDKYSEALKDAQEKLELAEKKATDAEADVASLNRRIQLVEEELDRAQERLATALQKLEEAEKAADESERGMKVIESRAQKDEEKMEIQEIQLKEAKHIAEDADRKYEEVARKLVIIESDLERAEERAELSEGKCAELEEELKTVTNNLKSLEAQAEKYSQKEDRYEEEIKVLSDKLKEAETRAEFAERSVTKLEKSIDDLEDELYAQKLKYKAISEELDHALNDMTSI

- ratio to parent (PKA): 0.42
- ratio to parent (troponin I): 0.73
- ratio to parent (troponin C): 0.78
- ratio to parent (tropomyosin): 0.57
Substance: TnT-WT-DYK (human cardiac troponin T, wild type, flag (DYK)-tagged) R173W
